B1: anti-TT mAb of hybridoma 14 (antibody, V domains shown)
VH: VQLQESGPGLVAPSQSLSITCTVSGFSLTSYGVHWVRQPPGKGLEWLGVIWPGGSTNYNSALMSRLSISQDNSKSQVFLKMNSLQIDDTAMYHCARDFQYGNYFDYWGQGTSLTVSS
VL: MPASPGEKITITCSASSSISSNYLHWYQQKPGFSPKLLIYRTSNLASGVPARFSGSGSGTSYSLTVGTMEAEDVATYYCQQGTSIPTFGAGTKLELK
B2: anti-TT mAb of hybridoma 24 (antibody, V domains shown)
VH: VQLQQTGPGLVQPSQSLSITCTVSAFSLTNYGIHWVRQSPGKGLEWLGVIWTGGSTDYNAPFISRLSISKDNSKSQVFFKMNSLQANDTAIYYCVRDGYRVMDYWGQGTSVTVSS
VL: LSASVGETVTITCRASGNIHNYLAWYQQKQGKSPQLLVYNAKTLTDGVPSRFSGSGSGTQHSLKINSLQPEDFGSYYCQHFWTIPWTFGGGTKLEIK

Assays:
[1] = biological target: tetanus toxin fragment C of the heavy chain; test: ELISA; details: one partner purified
[2] = biological target: T1, tetanus toxin light chain (Clostridium tetani, strain  …, UniProt P04958); test: ELISA; details: one partner purified
T1 construct: source: bought: List Biological Laboratories
T1 sequence (P04958 1-457): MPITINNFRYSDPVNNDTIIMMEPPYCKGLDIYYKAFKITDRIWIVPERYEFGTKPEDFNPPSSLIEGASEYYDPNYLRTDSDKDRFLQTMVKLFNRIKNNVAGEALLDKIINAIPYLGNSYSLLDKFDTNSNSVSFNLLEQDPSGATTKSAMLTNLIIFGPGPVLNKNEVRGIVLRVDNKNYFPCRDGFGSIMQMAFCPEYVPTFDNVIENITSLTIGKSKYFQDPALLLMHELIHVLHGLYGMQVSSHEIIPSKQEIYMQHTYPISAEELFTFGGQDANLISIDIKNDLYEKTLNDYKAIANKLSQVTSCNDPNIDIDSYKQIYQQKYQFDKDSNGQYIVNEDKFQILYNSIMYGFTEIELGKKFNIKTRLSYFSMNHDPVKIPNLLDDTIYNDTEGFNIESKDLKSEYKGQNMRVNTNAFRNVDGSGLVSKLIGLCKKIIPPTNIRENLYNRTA

Sequence of tetanus toxin fragment C of the heavy chain (P04958 865-1315 limits assumed): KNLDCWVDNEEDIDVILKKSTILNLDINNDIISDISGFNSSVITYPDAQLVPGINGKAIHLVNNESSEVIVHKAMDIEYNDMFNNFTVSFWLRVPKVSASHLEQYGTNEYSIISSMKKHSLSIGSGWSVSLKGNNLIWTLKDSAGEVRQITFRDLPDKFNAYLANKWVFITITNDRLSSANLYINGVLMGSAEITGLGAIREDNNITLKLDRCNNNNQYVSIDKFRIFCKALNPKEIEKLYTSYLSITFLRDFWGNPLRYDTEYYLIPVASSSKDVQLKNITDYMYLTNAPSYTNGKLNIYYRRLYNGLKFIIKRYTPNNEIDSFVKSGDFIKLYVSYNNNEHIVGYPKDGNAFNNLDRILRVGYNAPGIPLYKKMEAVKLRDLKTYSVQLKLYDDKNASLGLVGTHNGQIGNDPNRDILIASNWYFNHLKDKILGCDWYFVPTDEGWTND

Row | Binder | binding result [1] | binding result [2]
1 | B1 | no binding | no binding
2 | B2 | binds | no binding

Source: article PMC4182348 (PLoS ONE, 2014)
